Assay results from patent US20170233485A1 (published 2017).
Blank lines part the entries; values can stand above or below the binder they belong to.

What was measured:
[1] = target: human FcγR CD16a V158-GST fusion protein (human, UniProt P08637 17-208); assay: ALPHAscreen competition
[2] = target: T1, human FcγR CD32b-GST fusion protein (human, UniProt P31994 43-217); assay: ALPHAscreen competition
T1 chain: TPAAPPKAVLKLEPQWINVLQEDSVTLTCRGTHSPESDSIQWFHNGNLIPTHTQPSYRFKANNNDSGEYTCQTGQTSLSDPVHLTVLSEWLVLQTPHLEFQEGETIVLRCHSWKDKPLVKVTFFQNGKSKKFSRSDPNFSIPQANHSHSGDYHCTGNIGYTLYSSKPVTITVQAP

[3] = target: T2, human FcγR CD32a R131-GST fusion protein (human, UniProt P12318 34-217); assay: ALPHAscreen competition
T2 chain: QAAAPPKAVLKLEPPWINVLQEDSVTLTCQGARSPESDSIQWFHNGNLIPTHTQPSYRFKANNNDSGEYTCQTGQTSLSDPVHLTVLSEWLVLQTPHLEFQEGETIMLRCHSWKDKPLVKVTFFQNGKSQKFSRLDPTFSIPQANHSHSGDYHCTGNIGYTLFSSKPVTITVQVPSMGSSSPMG

[4] = target: T3, human FcγR CD64-GST fusion protein (human, UniProt P12314 16-292); assay: ALPHAscreen competition
T3 chain: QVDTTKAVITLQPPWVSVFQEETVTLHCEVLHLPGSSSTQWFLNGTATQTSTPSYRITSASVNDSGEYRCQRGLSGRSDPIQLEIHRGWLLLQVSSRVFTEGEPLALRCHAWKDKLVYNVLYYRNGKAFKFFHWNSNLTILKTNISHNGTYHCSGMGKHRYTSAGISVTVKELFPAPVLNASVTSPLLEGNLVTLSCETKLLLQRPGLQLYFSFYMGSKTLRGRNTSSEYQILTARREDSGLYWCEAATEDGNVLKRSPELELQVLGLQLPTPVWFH

[5] = target: T4, cynomolgus monkey CD40 (cell surface); assay: flow cytometry, B cells in whole blood; geometric mean, A647-conjugated
T4 chain: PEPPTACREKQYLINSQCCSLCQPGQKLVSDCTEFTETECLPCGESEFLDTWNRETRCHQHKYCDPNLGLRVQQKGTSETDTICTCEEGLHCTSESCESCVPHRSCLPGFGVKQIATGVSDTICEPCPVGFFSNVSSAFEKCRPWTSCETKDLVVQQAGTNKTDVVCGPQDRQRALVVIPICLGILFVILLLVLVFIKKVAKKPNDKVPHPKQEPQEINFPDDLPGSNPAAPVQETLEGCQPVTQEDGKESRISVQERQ

[6] = target: T5, human CD40 (cell surface) (UniProt P25942 20-277); assay: as above
[7] = target: T4, cynomolgus monkey CD40 (cell surface); assay: flow cytometry, CHO-CD40; avid
[8] = target: T6, rhesus monkey CD40 (cell surface) (rhesus monkey, UniProt F6SNI1 21-278); assay: flow cytometry, CHO-CD40; avid
T6 chain: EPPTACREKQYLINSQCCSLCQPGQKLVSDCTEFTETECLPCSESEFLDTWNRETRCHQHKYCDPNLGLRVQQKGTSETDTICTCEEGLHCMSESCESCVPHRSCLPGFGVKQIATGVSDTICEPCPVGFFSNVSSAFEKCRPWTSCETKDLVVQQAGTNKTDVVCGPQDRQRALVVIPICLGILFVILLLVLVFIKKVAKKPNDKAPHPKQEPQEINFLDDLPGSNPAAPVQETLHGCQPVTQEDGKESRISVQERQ

[9] = target: T5, human CD40 (cell surface); assay: flow cytometry, CHO-CD40; avid
[10] = target: T5, human CD40 (cell surface); assay: flow cytometry; 4-P fit parameter C
[11] = target: T5, human CD40 (cell surface); assay: flow cytometry, B cells in whole blood; A647-conjugated

Sequence of human FcγR CD16a V158-GST fusion protein (P08637 17-208 F176V): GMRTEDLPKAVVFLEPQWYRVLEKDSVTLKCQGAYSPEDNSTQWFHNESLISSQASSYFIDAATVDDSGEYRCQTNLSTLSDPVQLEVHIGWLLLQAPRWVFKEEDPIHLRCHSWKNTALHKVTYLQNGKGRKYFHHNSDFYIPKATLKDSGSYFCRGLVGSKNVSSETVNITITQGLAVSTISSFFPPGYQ

IC50 [1]: 680 µg/mL
IC50 [2]: 282 µg/mL
IC50 [3]: 118 µg/mL
IC50 [4]: 14.7 µg/mL
B1: Exemplary Anti-CD40 Antibody 1 (antibody)
heavy: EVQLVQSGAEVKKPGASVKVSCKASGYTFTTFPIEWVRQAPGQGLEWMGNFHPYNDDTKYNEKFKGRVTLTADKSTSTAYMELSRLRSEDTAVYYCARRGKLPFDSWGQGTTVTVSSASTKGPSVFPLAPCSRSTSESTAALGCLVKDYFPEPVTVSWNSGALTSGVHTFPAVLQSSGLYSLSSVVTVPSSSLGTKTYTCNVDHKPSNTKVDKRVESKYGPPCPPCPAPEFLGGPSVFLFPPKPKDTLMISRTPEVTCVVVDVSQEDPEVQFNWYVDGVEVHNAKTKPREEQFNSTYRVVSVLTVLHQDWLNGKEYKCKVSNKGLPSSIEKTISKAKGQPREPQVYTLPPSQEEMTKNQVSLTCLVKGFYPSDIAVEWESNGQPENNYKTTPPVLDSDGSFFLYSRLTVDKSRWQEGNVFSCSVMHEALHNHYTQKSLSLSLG
light: DIQMTQSPSSLSASVGDRVTISCRASQDISNYLNWYQQKPGKVPKLLIYFTSRLRSGVPSRFSGSGSGTDYTLTISSLQPEDVATYYCQQDRKLPWTFGQGTKLEIKRTVAAPSVFIFPPSDEQLKSGTASVVCLLNNFYPREAKVQWKVDNALQSGNSQESVTEQDSKDSTYSLSSTLTLSKADYEKHKVYACEVTHQGLSSPVTKSFNRGEC
modifications: Alexa647 conjugate in some whole-blood assays; N-linked glycan on the heavy chain; neither is carried by the letters.

EC50 [5]: 0.109 µg/mL
EC50 [6]: 0.0626 µg/mL
EC50 [7]: 0.131 µg/mL
EC50 [8]: 0.249 µg/mL
EC50 [9]: 0.0895 µg/mL
EC50 [10]: 0.0804 µg/mL
EC50 [11]: 0.0777 µg/mL
B2: Agly hAKH3 IgG4P/IgG1 (antibody, V domains shown)
VH: EVQLVQSGAEVKKPGASVKVSCKASGYTFTTFPIEWVRQAPGQGLEWMGNFHPYNDDTKYNEKFKGRVTLTADKSTSTAYMELSRLRSEDTAVYYCARRGKLPFDSWGQGTTVTVSS
VL: DIQMTQSPSSLSASVGDRVTISCRASQDISNYLNWYQQKPGKVPKLLIYFTSRLRSGVPSRFSGSGSGTDYTLTISSLQPEDVATYYCQQDRKLPWTFGQGTKLEIK
